# From patent US20250282868A1 (ITEOS BELGIUM, published 2025)
# T1: human TREM2 (human, UniProt Q9NZC2 19-230)
# T1 sequence: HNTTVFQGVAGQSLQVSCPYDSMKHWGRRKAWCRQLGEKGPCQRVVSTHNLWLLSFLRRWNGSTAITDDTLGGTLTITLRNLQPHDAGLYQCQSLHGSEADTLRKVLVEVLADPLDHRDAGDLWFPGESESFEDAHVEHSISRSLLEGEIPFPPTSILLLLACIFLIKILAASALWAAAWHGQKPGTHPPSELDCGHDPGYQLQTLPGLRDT
# T2: cynomolgus TREM2 (cynomolgus, UniProt A0A2K5UY34 49-260)
# T2 construct: also called cynoTREM2; cTREM2
# T2 sequence: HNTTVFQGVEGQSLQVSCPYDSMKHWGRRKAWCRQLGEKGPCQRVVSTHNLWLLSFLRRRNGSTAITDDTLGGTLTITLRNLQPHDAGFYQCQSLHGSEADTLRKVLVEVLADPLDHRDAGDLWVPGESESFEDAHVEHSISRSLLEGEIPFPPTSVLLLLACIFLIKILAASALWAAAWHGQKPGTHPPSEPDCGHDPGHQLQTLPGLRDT
# T3: mouse TREM2 (mouse, UniProt Q99NH8 19-227)
# T3 construct: whole, on cells
# T3 sequence (looked up): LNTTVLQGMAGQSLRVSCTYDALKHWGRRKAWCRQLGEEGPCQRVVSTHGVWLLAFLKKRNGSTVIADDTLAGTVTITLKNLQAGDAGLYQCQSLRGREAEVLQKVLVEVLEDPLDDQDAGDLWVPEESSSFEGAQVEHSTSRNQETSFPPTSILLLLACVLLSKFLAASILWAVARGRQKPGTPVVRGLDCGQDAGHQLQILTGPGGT
# Columns and labels:
# human TREM2 [1] = molecular target: T1, human TREM2; experiment: cell-based or functional assay
# human TREM2 [2] = molecular target: T1, human TREM2; experiment: cell-based or functional assay; remark: listed apart in the source
# human TREM2 [3] = molecular target: T1, human TREM2; experiment: flow cytometry, M2a-like macrophages
# Description: (§1) M2a-like macrophages were produced in vitro from monocytes of healthy donors. Briefly, after PBMCs isolation from peripheral blood using Lymphoprep™ gradient, CD14+ cells were purified and seeded in presence of MCSF 50 ng/ml for 6 days. Macrophages were then cultured with IL-13 and IL-4 at a concentration of 20 ng/ml for two additional days and then used for a cell-based binding assay.
# (§2) M2a-like macrophages were incubated with anti-TREM2 antibodies (dose-response curve with 11 concentrations from 10 μg/ml to 0.0001 μg/ml) for 30 min at 4° C. After washing, bound antibodies were detected with a secondary anti-human IgG Fc PE-labelled for 30 min at 4° C. Fluorescence intensity was measured by flow cytometry. Equilibrium dissociation constant (kD) was then calculated for each antibody using median MFI normalized over isotype control.
# human TREM2 [4] = molecular target: T1, human TREM2; experiment: flow cytometry, THP-1 WT cells, 10 ug/ml
# Description: (§3) In order to test specificity of selected antibodies to TREM2, binding was tested by flow cytometry on THP-1 TREM2 KO (clone, produced using CRISPR technology in house) and on THP-1 WT. Cells were incubated with selected anti-TREM2 antibodies (final concentration of 10 μg/ml) for 30 min at 4° C. After washing, bound antibodies were detected with a secondary anti-human IgG Fc PE-labelled for 30 min at 4° C. Fluorescence intensity was measured by flow cytometry.
# cynomolgus TREM2 [5] = molecular target: T2, cynomolgus TREM2; experiment: MFI on CHO cells over-expressing cynoTREM2-DAP12
# Description: (§4) Cross-reactivity of anti-TREM2 antibodies to cynomolgus TREM2 (cynoTREM2) was assessed using CHO over-expressing cynoTREM2-DAP12 (Table 22). Benchmark antibodies, AB52 and PN-37012, were examined for comparison.
# human TREM2 [6] = molecular target: T1, human TREM2; experiment: flow cytometry, M2a-like macrophages, dose-response
# Description: as §1, §2
# mouse TREM2 [7] = molecular target: T3, mouse TREM2; experiment: MFI on CT26 cells over-expressing mouse TREM2 and DAP12
# Description: (§5) Cross-reactivity to mouse TREM2 was assessed using CT26 cells over-expressing mouse TREM2 and DAP12 (Table 23). Eight anti-TREM2 antibodies and both benchmark antibodies were considered cross-reactive to mouse TREM2 (MFI higher than isotype control and fold change of CT26-TREM2 over the CT26 Empty Vector higher than 5). The remaining anti-TREM2 antibodies were considered as being low to not cross-reactive (fold change less than 5). EOS006171 was not tested due to clear non-cross-reactivity preliminary data by octet (data not shown).
# human TREM2 [8] = molecular target: T1, human TREM2; experiment: flow cytometry, THP-1 WT vs THP-1 TREM2 KO cells, 10 ug/ml
# Description: as §3
# cynomolgus TREM2 [9] = molecular target: T2, cynomolgus TREM2; experiment: MFI on CHO cells over-expressing cynoTREM2-DAP12 vs CHO empty vector
# Description: as §4
# mouse TREM2 [10] = molecular target: T3, mouse TREM2; experiment: MFI on CT26 cells over-expressing mouse TREM2 and DAP12 vs CT26 empty vector
# Description: as §5
# mouse TREM2 [11] = molecular target: T3, mouse TREM2; experiment: MFI on CT26 cells over-expressing mouse TREM2 and DAP12; column 'Considered cross-reactive'
# Description: as §5
# human TREM2 [12] = molecular target: T1, human TREM2; experiment: flow cytometry, competition with LDL-Alexafluor-488 on CHO cells overexpressing human TREM2/DAP12
# Description: (§6) Exemplary anti-TREM2 antibodies were tested in order to characterize their ability to enter in competition with TREM2 ligand, LDL, on CHO overexpressing human TREM2/DAP12. Antibodies (dose response curves from 66.65 nM to 0.07 nM) were incubated for 30 min with cells in a soluble fashion, followed by an incubation with LDL coupled with Alexafluor-488 (at 1 μg/mL final) for 30 min. Finally, after 2 washes, cells were acquired on flow cytometer. The median MFI of Alexafluor-488 was used to plot the graphs. Benchmark antibody MOR044746 was used as positive control.
# human TREM2 [13] = molecular target: T1, human TREM2; experiment: flow cytometry, competition with LDL-Alexafluor-488 on CHO cells overexpressing human TREM2/DAP12; only 1 value generated
# Description: as §6
# human TREM2 [14] = molecular target: T1, human TREM2; experiment: flow cytometry, competition with LDL-Alexafluor-488 on CHO cells overexpressing human TREM2/DAP12; positive control
# Description: as §6
Binder,Stabilization ratio (Mean of 2 replicates) (human TREM2 [1]) [ratio],Fold over isotype control at 66 nM (human TREM2 [2]) [fold],Fold over isotype (human TREM2 [3]) [fold],Fold over isotype control THP1 WT (human TREM2 [4]) [fold],Binding to CHO-cTREM2 MFI (cynomolgus TREM2 [5]) [MFI],Kd (human TREM2 [6]) [nM],Binding to CT26-TREM2 MFI (mouse TREM2 [7]) [MFI],MFI Fold change (THP-1 WT over THP-1 TREM2 KO) (human TREM2 [8]) [fold],MFI Fold change (CHO-cTREM2 over CHO-EV) (cynomolgus TREM2 [9]) [fold],MFI Fold change (CT26-TREM2 over CT26-EV) (mouse TREM2 [10]) [fold],IC50 (human TREM2 [12]) [nM],IC50 (human TREM2 [13]) [nM],IC50 (human TREM2 [14]) [nM],binding result (mouse TREM2 [11])
"EOS006165 (antibody, V domains shown) VH: QVQLVQSGAEVKKPGSSVKVSCKASGGTFSSYAISWVRQAPGQGLEWMGGIIPISGTANYAQKFQGRVTITADESTSTAYMELSSLRSEDTAVYYCARTQEYTAFDIWGQGTMVTVSS VL: EIVLTQSPATLSLSPGERATLSCRASQSVSSYLAWFQQKPGQAPRLLIYDASNRATGIPARFSGSGSGTDFTLTISSLEPEDFAVYYCQQDYHWPITFGGGTKVEIK",0.54,1.03,2.2,1.7,8500,0.41,649,2.5,189,2.3,5.29,–,–,no binding (tested: fold change less than 5)
"EOS004283 (antibody, human IgG1, kappa, V domains shown) VH: QVQLVQSGAEVKKPGSSVKVSCKASGGTFAQYAISWVRQAPGQGLEWMGVIIPDSGTANYAQKFQGRVTITADESTSTAYMELSSLRSEDTAVYYCARTQENTIFDIWGQGTLVTVSS VL: EIVLTQSPATLSLSPGERATLSCRASQSVSSYLAWFQQKPGQAPRLLIYDASNRATGIPARFSGSGSGTDFTLTISSLEPEDFAVYYCQQDYEWPITFGGGTKVEIKR",–,0.267,–,–,–,–,–,–,–,–,–,0.138,–,–
"EOS006162 (antibody, V domains shown) VH: QVQLVQSGAEVKKPGSSVKVSCKASGGTFSSYAISWVRQAPGQGLEWMGGIIPISGTANYAQKFQGRVTITADESTSTAYMELSSLRSEDTAVYYCARTQEYTLFDSWGQGTMVTVSS VL: EIVLTQSPATLSLSPGERATLSCRASQSVSSYLAWFQQKPGQAPRLLIYDASNRATGIPARFSGSGSGTDFTLTISSLEPEDFAVYYCQQDYHWPITFGGGTKVEIK",0.4,0.785,10.8,9.9,17100,0.13,2000,11,393,6.4,0.116,–,–,no binding

# Second part, led by results:
Stabilization ratio (Mean of 2 replicates) (human TREM2 [1]) [ratio],Fold over isotype control at 66 nM (human TREM2 [2]) [fold],Fold over isotype (human TREM2 [3]) [fold],Fold over isotype control THP1 WT (human TREM2 [4]) [fold],Binding to CHO-cTREM2 MFI (cynomolgus TREM2 [5]) [MFI],Kd (human TREM2 [6]) [nM],Binding to CT26-TREM2 MFI (mouse TREM2 [7]) [MFI],MFI Fold change (THP-1 WT over THP-1 TREM2 KO) (human TREM2 [8]) [fold],MFI Fold change (CHO-cTREM2 over CHO-EV) (cynomolgus TREM2 [9]) [fold],MFI Fold change (CT26-TREM2 over CT26-EV) (mouse TREM2 [10]) [fold],IC50 (human TREM2 [12]) [nM],IC50 (human TREM2 [13]) [nM],IC50 (human TREM2 [14]) [nM],Binder,binding result (mouse TREM2 [11])
0.46,0.59,9.8,8.7,17200,0.09,1660,8.9,418,4.9,0.115,–,–,"EOS006172 (antibody, V domains shown) VH: QVQLVQSGAEVKKPGSSVKVSCKASGGTFSSYAISWVRQAPGQGLEWMGGIIPISGTANYAQKFQGRVTITADESTSTAYMELSSLRSEDTAVYYCARTQEYTLFDIWGQGTMVTVSS VL: EIVLTQSPATLSLSPGERATLSCRASQSVSSYLAWFQQKPGQAPRLLIYDASNRATGIPARFSGSGSGTDFTLTISSLEPEDFAVYYCQQDFHWPITFGGGTKVEIK",no binding (tested: fold change less than 5)
0.39,0.757,5.8,5.5,10200,1.06,1390,5.8,233,3.9,–,0.28,–,"EOS006175 (antibody, V domains shown) VH: QVQLQESGPGLVKPSGTLSLTCAVSGGSISSSNWWSWVRQPPGKGLEWIGEIYHSGSTNYNPSLKSRVTISVDKSKNQFSLKLSSVTAADTAVYYCARDTKYWGGMDVWGQGTTVTVSS VL: DIQMTQSPSSLSASVGDRVTITCQASQDISNYLNWYQQKPGKAPKLLIYDASNLATGVPSRFSGSGSGTDFTFTISSLQPEDIATYYCQQYVEAPTFGGGTKVEIK",–
–,–,–,–,–,–,–,–,–,–,–,–,0.395,"MOR044746 (antibody, V domains shown, benchmark anti-TREM2 antibody from WO2020079580) VH: QVQLQQSGPGLVKPSQTLSLTCAISGDSVSSSSAAWNWIRQSPSRGLEWLGHIGYRSKWYNEYAVSVKSRITINPDTSKNQFSLQLNSVTPEDTAVYYCARGMYGSVPYKEGYYFDIWGQGTLVTVSS VL: DIQMTQSPSSLSASVGDRVTITCRASQGISSDLNWYQQKPGKAPKLLIYAASNLQSGVPSRFSGSGSGTDFTLTISSLQPEDFATYYCQQYTDESMTFGQGTKVEIK",–
